Columns and labels:
CD4 D1D2 = experiment: SPR cross-inhibition: ⍺4β7 binding to immobilized CD4 D1D2 after preincubation of the surface with CD4 mAbs; conditions: surface preincubated with mAb, Fig 8C
Excerpt: Fig 8 Mutating a gp120 contact site in CD4 D1 abrogates CD4-⍺4β7 interactions. (A) Positions of amino acid substitutions introduced into D1D2-Ig⍺tp are indicated on a space-filling model of CD4 D1D2. Substitutions at S42/F43 in D1 (green) and K171 in D2 (purple) are shown. Approximate locations of mAb Leu3A and ibalizumab epitopes are indicated. (B) Flow-cytometric analysis of increasing amounts of D1D2-Ig⍺tp and mutant derivatives binding to ⍺4β7 on CD8^+ T cells. Y-axis indicates % cells bound. (C) SPR analysis of soluble ⍺4β7 binding to a D1D2 coated surface following preincubation of the surface with ibalizumab (red), mAb Leu3A (light green), or ⍺4β7 (dark green). Y-axis indicates the mass of soluble ⍺4β7 bound at the end of the association phase. Mass of prebound inhibitors is subtracted. (D) Flow-cytometric analysis of unlabeled gp120 inhibiting PE labeled D1D2-Ig⍺tp binding to ⍺4β7 on CD8^+ T cells. The integrin ⍺4 antagonist FG was employed as a control. Y-axis indicates MFI.
Experiments were performed using a Biacore 3000 instrument (Cytiva Life Sciences) using CM4 or CM5 sensor chips. The data were evaluated using BIAevaluation 4.1.1 software (Cytiva Life Sciences). […] The ability of each analyte to inhibit either itself or ⍺4β7 was determined by comparing the binding of ⍺4β7 in the absence or presence of the listed pre-bound analytes as previously described. […]

[1] = system: ⍺4β7 on primary CD8^+ T cells; experiment: Flow cytometry: FAM-conjugated pCD4^165-178 binding to RA-treated primary CD8^+ T cells; parameters: species or system human; conditions: FAM-Ttds-labelled peptide 1.25 μg/200,000 cells in 100 μl; MnCl2; 3 independent experiments
Excerpt: To further investigate the interaction between pCD4^165-178 and ⍺4β7 we attached a fluorescein dye to its amino terminus via a trioxatridecan-succinamic acid (Ttds) linker (Fig 5A). A scrambled pCD4^165-178 was employed as a control. […] FIB504 and vedolizumab inhibited binding by ~50%. This inhibition pattern resembles the one we obtained when inhibiting D1D2-Ig⍺tp with the same antagonists (Fig 3). We conclude that the CD4 D2 G β-strand binds directly to the headpiece region of ⍺4β7 in a cation dependent manner. Support for this conclusion, in the form of site directed mutagenesis within the D2 G β-strand is provided below.
Fig 5 Direct binding of pCD4^165-178 to ⍺4β7 on primary T cells. (A) Sequence of FAM -conjugated pCD4^165-178 and a scrambled derivative (FAM-scr pCD4^165-178). (B) Flow-cytometry derived histogram of pCD4^165-178 binding to RA -cultured CD8^+ T cells. pCD4^165-178 in the presence (green), or absence of Mn^++(black). Unstained cells are shown (grey). (C) Binding of pCD4^165-178 and its scrambled derivative to CD8^+ T cells in the presence of MnCl2 as in panel B, and in the presence of ⍺4 and ⍺4β7 antagonists, as indicated. Y-axis indicates % cells bound. Error bars represent standard error from 3 independent experiments.
Cells were stained with fluoresceine conjugated mAbs or recombinant proteins using standard procedures preceded by Fc receptor blocking with human IgG. Buffers used were 10 mM HEPES 150 mM NaCl (HBS Buffer) with 100 μM CaCl2. 1 mM MnCl2 was also included, unless otherwise specified. Buffer without divalent cations included 0.1 mM EDTA. Unlabeled mAb or protein inhibitors were preincubated with cells or proteins at a 5X molar excess for 15 min on ice. FAM labeled peptides were used at 1.25 μg/ 200,000 cells in a 100 μl volume. Data were acquired using a FACSCanto II (BD Biosciences) and analyzed with FlowJo software (BD Biosciences). Plotted MFI values represent absolute values.

⍺4β7 on RPMI8866 cells [2] = experiment: Flow cytometry: D1D2-Ig⍺tp staining of RPMI8866 cells with ⍺4 and β7 antagonists; assay type: binding, human; conditions: antagonist at 10 μg/ml, 1 mM MnCl2
Excerpt: (§1) Several mAbs and small molecule antagonists of ⍺4β7 and ⍺4β1 have been developed to treat diseases, including IBD and MS. […] Vedolizumab and etrolizumab are β7 mAbs, based on murine mAbs Act-1 and FIB504, respectively. Both are used to treat IBDs, [50, 51]. Natulizumab is an ⍺4 specific humanized version of the mouse mAb HP2/1 used to treat Multiple Sclerosis (MS). […] To determine whether these antagonists block CD4 binding to α4β7, we stained RPMI8866 cells with D1D2-Ig⍺tp in the absence or presence of increasing concentrations of each (Fig 3).
(§2) Y-axis indicates gMFI. Dashed and solid lines represent gMFI of D1D2-Ig⍺tp and MAdCAM-Ig respectively, in the absence of any antagonist.
(§3) Cells were stained with fluoresceine conjugated mAbs or recombinant proteins using standard procedures preceded by Fc receptor blocking with human IgG. Buffers used were 10 mM HEPES 150 mM NaCl (HBS Buffer) with 100 μM CaCl2. 1 mM MnCl2 was also included, unless otherwise specified.

⍺4β7 on RPMI8866 cells [3] = experiment: Flow cytometry: MAdCAM-Ig staining of RPMI8866 cells with ⍺4 and β7 antagonists; assay type: binding, human; conditions: antagonist at 1 μg/ml
Excerpt: as §1, §2, §3

⍺4β7 on RPMI8866 cells [4] = experiment: Flow cytometry: cross-inhibition of MAdCAM-Ig, VCAM-Ig and D1D2-Ig⍺tp binding to RPMI8866 cells; parameters: species or system human; conditions: increasing concentrations of unlabeled inhibitor, Fig 2C, 2D
Description: Cis interactions between various integrins and leukocyte receptors are known to regulate immune cell functions. To determine whether CD4 inhibits MAdCAM-1 or VCAM-1 binding to ⍺4β7 we preincubated RPMI8866 cells with labelled MAdCAM-Ig or VCAM-Ig in the presence of increasing concentrations of unlabeled D1D2-Ig⍺tp. […] This implies that MAdCAM-1 and VCAM-1, acting in trans, may interfere with CD4-⍺4β7 interactions. What remains unknown is whether interactions between ⍺4β7 and CD4 impact CD4 migration into the TCR and subsequent interactions with MHC II (Fig 2E).
Fig 2 Cross-inhibition of MAdCAM-Ig, VCAM-Ig and D1D2-Ig⍺tp binding to ⍺4β7. Flow cytometric analysis of (A) PE -conjugated MAdCAM-Ig or (B) PE -conjugated VCAM-Ig binding to RPMI8866 cells pre-incubated with increasing concentrations of unlabeled D1D2-Igαtp. Cell preincubated with increasing concentrations of (C) unlabeled MAdCAM-Ig or (D) VCAM-Ig followed by PE -conjugated D1D2-Ig⍺tp. Y-axis indicates gMFI. Dashed line indicates gMFI in the absence of any inhibitor.
as §3, with “[…] Data were acquired using a FACSCanto II (BD Biosciences) and analyzed with FlowJo software (BD Biosciences). […]” for “1 mM MnCl2 was also included, unless otherwise specified.”

⍺4β7 = experiment: SPR binding kinetics: recombinant ⍺4β7 passed over ligand-coated surfaces (S1 Table); conditions: SPR Biacore 3000, ligand immobilized, ⍺4β7 analyte, HBS pH 7.4, 1 mM MnCl2, 25°C
Description: To measure the specific affinity of CD4–⍺4β7 interactions we developed a surface plasmon resonance (SPR) -based assay in which recombinant ⍺4β7 was passed over a surface coated with a 23 kD D1D2 protein (aa 1–183). For comparison we prepared surfaces with recombinant MAdCAM-Ig, VCAM-Ig, monomeric gp120, and a SOSIP env trimer (S1 Table). Assays were carried out in the presence of MnCl2 to present ⍺4β7 in an active conformation. […] This rate of dissociation was similar to that of both MAdCAM-Ig and VCAM-Ig with ⍺4β7 and is indicative of a relatively high-affinity interaction.
Experiments were performed using a Biacore 3000 instrument (Cytiva Life Sciences) using CM4 or CM5 sensor chips. The data were evaluated using BIAevaluation 4.1.1 software (Cytiva Life Sciences). The chip surface was activated by injecting 35 μl of a 1:1 mixture of 0.05 M N-hydroxysuccinimide and 0.2 M N-ethyl-N-(dimethylaminopropyl) carbodiimide at 5 μl/min. NeutrAvidin, HIV gp120, sCD4 (D1D2) or Hu-MAdCAM-Ig (R&D Systems) at concentrations of 5 μg/ml in 10mM NaOAc, pH 4.5, were immobilized to 250–750 resonance units (RU). After the proteins were immobilized to the desired densities, unreacted sites were blocked with 35 μl of 1 M Tris-HCl (pH 8.0). Biotinylated cyclic V2 peptides (1 μg/ml in 20 mM Tris-HCl, pH 8.0) were bound to the NeutrAvidin surfaces to densities of approximately 250–300 RU. One surface was activated and blocked without ligand as a control surface for non-specific binding. Signal from the control surface was subsequently subtracted. Running buffer was HBS (pH 7.4), 1 mM MnCl2, 0.005% Tween- 20, 0.05% soluble carboxymethyl-dextran. Binding experiments were carried out at a flow rate of 25 μl/min at 25°C. After a 2 min injection, the surface was washed for an additional 2 min in running buffer allowing dissociation of the bound ligand from the surface. The surfaces were regenerated by multiple injections of 4.5 M MgCl2 at a flow rate of 100 μl/min. Inhibition of ⍺4β7 binding by linear V2-loop and CD4 derived peptides was carried out by pre-incubating ⍺4β7 with the peptides in running buffer at the indicated concentrations for 2 hours at room temperature prior to passing them over the prepared surfaces as described above. Cross-inhibition experiments were performed by passing either buffer or the listed analytes over a surface to which sCD4 (D1D2) had been immobilized, followed by a secondary sequential injection of ⍺4β7. The ability of each analyte to inhibit either itself or ⍺4β7 was determined by comparing the binding of ⍺4β7 in the absence or presence of the listed pre-bound analytes as previously described. Illustration of the dynamic range of range of linear peptide inhibition assays is provided in S4 Fig.

⍺4β7 on RPMI8866 cells [5] = experiment: Flow cytometry: ligand staining of ⍺4β7-expressing cells in buffers with different divalent cations; assay type: binding, human; conditions: absence of divalent cations (0.1 mM EDTA)
Excerpt: Fig 1 Binding of soluble CD4 to ⍺4β7 on CD4^+ T cells. (A) Schematic of D1D2-Ig⍺tp. (B) Flow-cytometry histogram of PE-conjugated D1D2-Ig⍺tp staining of CD4^+ T cells alone (blue) or in the presence of either the anti ⍺4 mAb 2B4 (green) or an irrelevant mAb (black-dashed). Cells stained with PE-conjugated MicA-Ig⍺tp (red), along with unstained cells (grey) are included. X-axis indicates geometric mean fluorescence intensity (gMFI). (C) 293T cells untransfected or co-transfected with ⍺4 and β7 expression vectors stained with either PE-D1D2-Ig⍺tp or PE-MAdCAM-Ig in the absence or presence of the ⍺4 antagonist FG. Y-axis indicates gMFI. (D) CD4^+ T cells stained with anti CD45RO (x-axis) anti β7 (y-axis) (left), or with anti CD45RO (x-axis) and D1D2-Ig⍺tp (y-axis) (right). % cells in each quadrant, as indicated. (E) CD4^+ T cells stained as in B, with lower MW forms of oligomerized D1D2-Ig⍺tp. Left Y-axis indicates gMFI (bars), right Y-axis indicates relative MW (kDa) (•). […]
Cells were stained with fluoresceine conjugated mAbs or recombinant proteins using standard procedures preceded by Fc receptor blocking with human IgG. […] Data were acquired using a FACSCanto II (BD Biosciences) and analyzed with FlowJo software (BD Biosciences). […]

Ibalizumab: CD4 D2 mAb
inhibition of ⍺4β7 binding to surface immobilized CD4 D1D2 (in words) (CD4 D1D2): failed to inhibit

Vedolizumab: β7 mAb based on murine mAb Act-1
reduction of pCD4^165-178 binding to CD8^+ T cells [1]: ~ 50%
reduction of D1D2-Ig⍺tp binding (⍺4β7 on RPMI8866 cells [2]): ~ 50%
inhibition of MAdCAM-Ig binding (in words) (⍺4β7 on RPMI8866 cells [3]): blocked MAdCAM-Ig efficiently

B1: VCAM-Ig: recombinant VCAM-1 Ig fusion, R&D Systems (protein)
chain: FKIETTPESRYLAQIGDSVSLTCSTTGCESPFFSWRTQIDSPLNGKVTNEGTTSTLTMNPVSFGNEHSYLCTATCESRKLEKGIQVEIYSFPKDPEIHLSGPLEAGKPITVKCSVADVYPFDRLEIDLLKGDHLMKSQEFLEDADRKSLETKSLEVTFTPVIEDIGKVLVCRAKLHIDEMDSVPTVRQAVKELQVYISPKNTVISVNPSTKLQEGGSVTMTCSSEGLPAPEIFWSKKLDNGNLQHLSGNATLTLIAMRMEDSGIYVCEGVNLIGKNRKEVELIVQEKPFTVEISPGPRIAAQIGDSVMLTCSVMGCESPSFSWRTQIDSPLSGKVRSEGTNSTLTLSPVSFENEHSYLCTVTCGHKKLEKGIQVELYSFPRDPEIEMSGGLVNGSSVTVSCKVPSVYPLDRLEIELLKGETILENIEFLEDTDMKSLENKSLEMTFIPTIEDTGKALVCQAKLHIDDMEFEPKQRQSTQTLYVNVAPRDTTVLVSPSSILEEGSSVNMTCLSQGFPAPKILWSRQLPNGELQPLSENATLTLISTKMEDSGVYLCEGINQAGRSRKEVELIIQVTPKDIKLTAFPSESVKEGDTVIISCTCGNVPETWIILKKKAETGDTVLKSIDGAYTIRKAQLKDAGVYECESKNKVGSQLRSLTLDVQGRENNKDYFSPE
modifications: left off: Ig (Fc, from the name VCAM-Ig), end not stated, kept
notes: recombinant VCAM-1 Ig fusion, R&D Systems
inhibition of PE-conjugated D1D2-Ig⍺tp binding to ⍺4β7 (in words) (⍺4β7 on RPMI8866 cells [4]): inhibited D1D2-Ig⍺tp binding to ⍺4β7 in a dose dependent manner
KA (⍺4β7): 2.76e+07 M⁻¹
ka (⍺4β7): 38700 M⁻¹ s⁻¹
kd (⍺4β7): 0.00141 s⁻¹
binding to ⍺4β7 (in words) (⍺4β7 on RPMI8866 cells [5]): failed to bind
